Ends that are not written are not given here.
Experiments:
[1] = mRNA encapsulation, particle size; assay type: physicochemical; settings: mRNA/phospholipid particles upon addition of the MYR-5A peptide
Source text: In an embodiment of the present invention, ˜2 kb mRNA was encapsulated to improve its functionality and bioavailability. mRNA was combined with phospholipid in the presence of detergent and particles of approximately 3 μm diameter were obtained. […] The smaller particle is suitable for efficient delivery of the mRNA to target cells and for therapeutic applications.

[2] = paclitaxel encapsulation efficiency into myristoyl peptide nanoparticles (3H-paclitaxel); assay type: physicochemical; settings: after centrifugation at 5,000 RPM for 5 minutes
Protocol: Paclitaxel encapsulation efficiency into myristoyl peptide nanoparticles based on measurements of 3H-paclitaxel is shown in FIG. 8. […] In order to clarify the preparations, the samples were centrifuged at 5,000 RPM for 5 minutes.

| Sequence | particle size [1] | initial amount of paclitaxel retained [2] |
| --- | --- | --- |
| DWLKAFYDKVAEKLKEAFPDWAKAAYDKAAEKAKEAA (also: myristoyl, place not given here) [MYR-5A, control peptide] | ~500 nm |  |
| EKLKALLEKLLAKLKELL (also: myristoyl, place not given here) [compound 39877] |  | 60% |

Reference: patent US9314532B2, “Drug delivery vehicle” (University of North Texas Health Science Center, priority 2012, dated 2016)
